Source: US20250228958A1, “TSP1 INHIBITOR” (Daiichi Sankyo Company, Limited, priority 2022, published 2025)
Positions of bridges follow the written chain, without caps; N, C: chain ends. Non-standard residues stand in square brackets, D forms with d. No end group written: not given here. 2Nal = N[C@@H](Cc1ccc2ccccc2c1)C(=O)O; Gly(cPent) = N[C@H](C(=O)O)C1CCCC1; 4Pal = N[C@@H](Cc1ccncc1)C(=O)O; Agb = N=C(N)NCC[C@H](N)C(=O)O; Pen = CC(C)(S)[C@H](N)C(=O)O; Phg = N[C@H](C(=O)O)c1ccccc1; Tle = CC(C)(C)[C@H](N)C(=O)O; hCys = N[C@@H](CCS)C(=O)O

What follows are binders tested against Thrombospondin human platelet (Calbiochem, 605225) (human, UniProt P07996 19-1170) (assay: cell-based or functional assay).
Thrombospondin human platelet (Calbiochem, 605225), sequence (P07996 19-1170 limits assumed): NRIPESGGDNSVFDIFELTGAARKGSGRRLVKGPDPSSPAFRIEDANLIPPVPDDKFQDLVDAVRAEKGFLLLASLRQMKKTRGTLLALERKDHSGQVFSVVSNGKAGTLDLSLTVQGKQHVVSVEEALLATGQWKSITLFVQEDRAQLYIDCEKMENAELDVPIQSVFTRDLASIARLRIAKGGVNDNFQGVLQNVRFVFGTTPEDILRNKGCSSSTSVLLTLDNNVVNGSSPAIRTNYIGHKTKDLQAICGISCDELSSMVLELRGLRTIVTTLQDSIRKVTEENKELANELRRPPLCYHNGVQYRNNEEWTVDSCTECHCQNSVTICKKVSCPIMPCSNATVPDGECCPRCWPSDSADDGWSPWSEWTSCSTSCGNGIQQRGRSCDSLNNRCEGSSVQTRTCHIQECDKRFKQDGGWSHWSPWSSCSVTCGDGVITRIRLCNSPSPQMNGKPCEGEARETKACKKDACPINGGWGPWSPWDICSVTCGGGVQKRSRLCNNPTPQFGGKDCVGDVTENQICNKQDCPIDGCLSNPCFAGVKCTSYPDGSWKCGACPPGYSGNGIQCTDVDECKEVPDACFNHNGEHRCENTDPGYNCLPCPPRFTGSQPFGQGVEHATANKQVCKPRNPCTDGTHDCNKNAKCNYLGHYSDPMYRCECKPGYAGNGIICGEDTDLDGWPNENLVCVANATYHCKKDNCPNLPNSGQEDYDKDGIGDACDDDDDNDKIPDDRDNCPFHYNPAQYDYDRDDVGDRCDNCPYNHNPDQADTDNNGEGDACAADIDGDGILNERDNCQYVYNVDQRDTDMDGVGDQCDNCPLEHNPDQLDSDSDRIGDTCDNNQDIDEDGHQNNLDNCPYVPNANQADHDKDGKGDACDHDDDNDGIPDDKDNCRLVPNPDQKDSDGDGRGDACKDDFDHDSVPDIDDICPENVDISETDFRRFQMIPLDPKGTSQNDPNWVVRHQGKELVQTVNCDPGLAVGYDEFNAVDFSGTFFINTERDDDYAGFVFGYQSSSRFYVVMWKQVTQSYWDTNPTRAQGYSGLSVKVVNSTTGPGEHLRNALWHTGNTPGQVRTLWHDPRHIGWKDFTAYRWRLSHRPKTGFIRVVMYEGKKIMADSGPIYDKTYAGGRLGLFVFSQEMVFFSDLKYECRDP

IC50 for inhibition of cell adhesion (HUVEC to coated human TSP1) [nM] | Binder
7.7 | [2Nal]RCGRDWCRW[Gly(cPent)]C-NH2 (bridge 3-8, N-12; not fully specified (N-terminus, bridges)) [Peptide-130]
8.4 | [2Nal]RCGRDWCRW[Gly(cPent)]C-NH2 (disulfide 3-8; bridge N-12; not fully specified (N-terminus, bridges)) [Peptide-128]
30.9 | [2Nal]RCGRDW[Pen]RW[Gly(cPent)]C-NH2 (bridge 3-8, N-12; not fully specified (N-terminus, bridges)) [Peptide-139]
102 | [2Nal]R[hCys]GRDW[Pen]RW[Gly(cPent)]C-NH2 (disulfide 3-8; bridge N-12; not fully specified (N-terminus, bridges)) [Peptide-134]
125 | [2Nal]R[Pen]GRDW[hCys]RW[Gly(cPent)]C-NH2 (bridge 3-8, N-12; not fully specified (N-terminus, bridges)) [Peptide-133]
162 | [2Nal]R[hCys]GRDW[Pen]RW[Gly(cPent)]C-NH2 (bridge 3-8, N-12; not fully specified (N-terminus, bridges)) [Peptide-136]
7 | [2Nal]R[hCys]GRDWCRW[Gly(cPent)]C-NH2 (bridge 3-8, N-12; not fully specified (N-terminus, bridges)) [Peptide-132]
92.5 | [2Nal]RCGRDW[Pen]RW[Gly(cPent)]C-NH2 (disulfide 3-8; bridge N-12; not fully specified (N-terminus, bridges)) [Peptide-138]
11.6 | [2Nal]R[hCys]GRDW[hCys]RW[Gly(cPent)]C-NH2 (bridge 3-8, N-12; not fully specified (N-terminus, bridges)) [Peptide-127]
14.2 | [2Nal]RCGRDW[hCys]RW[Gly(cPent)]C-NH2 (bridge 3-8, N-12; not fully specified (N-terminus, bridges)) [Peptide-131]
43.7 | [2Nal]R[hCys]GRDWCRW[Gly(cPent)]C-NH2 (disulfide 3-8; bridge N-12; not fully specified (N-terminus, bridges)) [Peptide-129]
208 | [2Nal]R[Pen]GRDW[hCys]RW[Gly(cPent)]C-NH2 (disulfide 3-8; bridge N-12; not fully specified (N-terminus, bridges)) [Peptide-135]
80.6 | [2Nal]R[Pen]GRDWCRW[Gly(cPent)]C-NH2 (bridge 3-8, N-12; not fully specified (N-terminus, bridges)) [Peptide-137]

Further lines, the binder ahead of its results:

Binder | IC50 for inhibition of cell adhesion (HUVEC to coated human TSP1) [nM]
[2Nal][Tle][hCys]GRNW[hCys]RW[Gly(cPent)]C-NH2 (disulfide 3-8; bridge N-12; not fully specified (N-terminus, bridges)) [Peptide-8] | 12.6
[2Nal]RCGRDW[hCys]RW[Gly(cPent)]C-NH2 (disulfide 3-8; bridge N-12; not fully specified (N-terminus, bridges)) [Peptide-126] | 10.8
[2Nal]R[hCys]G[Agb]NW[hCys]RW[Gly(cPent)]C-NH2 (disulfide 3-8; bridge N-12; not fully specified (N-terminus, bridges)) [Peptide-1] | 12.6
[2Nal][Agb][hCys]G[Agb]NW[hCys]RW[Gly(cPent)]C-NH2 (disulfide 3-8; bridge N-12; not fully specified (N-terminus, bridges)) [Peptide-2] | 20
[2Nal][Phg][hCys]G[Agb]NW[hCys]RW[Gly(cPent)]C-NH2 (disulfide 3-8; bridge N-12; not fully specified (N-terminus, bridges)) [Peptide-3] | 29.9
[2Nal]R[hCys]G[Agb]NW[hCys][4Pal]W[Gly(cPent)]C-NH2 (disulfide 3-8; bridge N-12; not fully specified (N-terminus, bridges)) [Peptide-5] | 23.6
[2Nal]R[hCys]G[Agb]NW[hCys][Phg]W[Gly(cPent)]C-NH2 (disulfide 3-8; bridge N-12; not fully specified (N-terminus, bridges)) [Peptide-4] | 33.8
[2Nal]R[hCys]GRDW[hCys]RW[Gly(cPent)]C-NH2 (linker 3-8 via acetone bridge (-S-CH2-CO-CH2-S-); bridge N-12; not fully specified (N-terminus, bridges)) [Peptide-125] | 305
[2Nal]R[hCys]GRNW[hCys]VW[Gly(cPent)]C-NH2 (disulfide 3-8; bridge N-12; not fully specified (N-terminus, bridges)) [Peptide-7] | 31.1
[2Nal]R[hCys]GRDW[hCys]RW[Gly(cPent)]C-NH2 (disulfide 3-8; bridge N-12; not fully specified (N-terminus, bridges)) [Peptide-11] | 26
[2Nal]R[hCys]G[Agb]DW[hCys]RW[Gly(cPent)]C-NH2 (disulfide 3-8; bridge N-12; not fully specified (N-terminus, bridges)) [Peptide-9] | 22.4
[2Nal]RSG[Agb]NWVRW[Gly(cPent)]C (bridge N-12; not fully specified (N-terminus, C-terminus, bridges); also: C-terminus amide-bonded to a linker (not defined)) [Peptide-115] | 17.5
[2Nal]R[hCys]GRNW[hCys]RWVC-NH2 (disulfide 3-8; bridge N-12; not fully specified (N-terminus, bridges)) [Peptide-12] | 18.6
